The source of these data is patent US20250283063, “NOVEL CRISPR-CAS12I SYSTEMS AND USES THEREOF” (HUIDAGENE THERAPEUTICS (SINGAPORE) PTE. LTD., published 2025).

In one series the target is T1, xCas12i-D892R (v4.3) (D892R).
T1 chain: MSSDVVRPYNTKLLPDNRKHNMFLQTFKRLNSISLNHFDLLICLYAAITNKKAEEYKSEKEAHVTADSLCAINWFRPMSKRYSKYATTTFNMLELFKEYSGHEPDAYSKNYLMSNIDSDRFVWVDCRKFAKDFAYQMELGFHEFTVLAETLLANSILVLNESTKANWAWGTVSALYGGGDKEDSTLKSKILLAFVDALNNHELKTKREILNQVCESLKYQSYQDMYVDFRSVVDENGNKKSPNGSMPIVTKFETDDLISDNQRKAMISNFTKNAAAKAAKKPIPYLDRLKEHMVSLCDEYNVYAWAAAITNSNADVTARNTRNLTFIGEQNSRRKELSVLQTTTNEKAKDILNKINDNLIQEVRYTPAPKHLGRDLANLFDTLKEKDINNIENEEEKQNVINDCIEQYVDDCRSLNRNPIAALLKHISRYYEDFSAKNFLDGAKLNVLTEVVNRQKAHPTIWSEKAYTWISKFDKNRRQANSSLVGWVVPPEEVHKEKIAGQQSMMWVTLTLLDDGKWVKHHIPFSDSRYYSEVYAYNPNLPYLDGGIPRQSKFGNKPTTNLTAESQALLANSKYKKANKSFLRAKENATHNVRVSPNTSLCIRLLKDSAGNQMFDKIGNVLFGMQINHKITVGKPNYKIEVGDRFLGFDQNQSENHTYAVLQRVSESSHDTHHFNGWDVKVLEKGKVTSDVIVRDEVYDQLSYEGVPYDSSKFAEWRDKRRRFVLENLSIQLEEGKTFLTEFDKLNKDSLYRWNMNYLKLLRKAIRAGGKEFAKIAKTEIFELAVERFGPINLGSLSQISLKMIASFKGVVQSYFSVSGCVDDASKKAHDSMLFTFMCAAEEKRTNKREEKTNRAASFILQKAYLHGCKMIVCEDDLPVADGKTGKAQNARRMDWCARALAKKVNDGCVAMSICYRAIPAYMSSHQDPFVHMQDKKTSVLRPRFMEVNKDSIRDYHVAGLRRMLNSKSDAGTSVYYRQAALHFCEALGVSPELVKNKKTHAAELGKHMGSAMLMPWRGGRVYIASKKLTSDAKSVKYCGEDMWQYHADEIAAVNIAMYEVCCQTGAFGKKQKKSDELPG
Nature of the series: cell_activity; HEK293T EGFP reporter. Conditions: tags: NLS. The source says: (§1) To vary xCas12i's dsDNA cleavage activity and/or expand its scope of PAM site recognition, the applicant engineered xCas12i protein via mutagenesis and screened for mutants with various dsDNA cleavage activity and broader PAM using a dual plasmid fluorescent reporter system similar to the dual plasmid fluorescent reporter system in Example 1, except that the EGxxxxFP-targeting guide RNA (SEQ ID NO: 51; “crON/crRNA On-target”) coding sequence operably linked to U6 promoter was not located on the expression plasmid together with the xCas12i (or its mutant) coding sequence (SEQ ID NO: 31) but located on the reporter plasmid together with the BFP-P2A-EGxxxxFP coding sequence (SEQ ID NO: 41) (referring to “On-Target Reporter” in FIG. 1B). […] The applicant then individually transfected the expression plasmid and the reporter plasmid into HEK293T cells and analyzed them by FACS (FIG. 1B). […]

For another series, the target named is T2, xCas12i-E875R (E875R).
T2 chain: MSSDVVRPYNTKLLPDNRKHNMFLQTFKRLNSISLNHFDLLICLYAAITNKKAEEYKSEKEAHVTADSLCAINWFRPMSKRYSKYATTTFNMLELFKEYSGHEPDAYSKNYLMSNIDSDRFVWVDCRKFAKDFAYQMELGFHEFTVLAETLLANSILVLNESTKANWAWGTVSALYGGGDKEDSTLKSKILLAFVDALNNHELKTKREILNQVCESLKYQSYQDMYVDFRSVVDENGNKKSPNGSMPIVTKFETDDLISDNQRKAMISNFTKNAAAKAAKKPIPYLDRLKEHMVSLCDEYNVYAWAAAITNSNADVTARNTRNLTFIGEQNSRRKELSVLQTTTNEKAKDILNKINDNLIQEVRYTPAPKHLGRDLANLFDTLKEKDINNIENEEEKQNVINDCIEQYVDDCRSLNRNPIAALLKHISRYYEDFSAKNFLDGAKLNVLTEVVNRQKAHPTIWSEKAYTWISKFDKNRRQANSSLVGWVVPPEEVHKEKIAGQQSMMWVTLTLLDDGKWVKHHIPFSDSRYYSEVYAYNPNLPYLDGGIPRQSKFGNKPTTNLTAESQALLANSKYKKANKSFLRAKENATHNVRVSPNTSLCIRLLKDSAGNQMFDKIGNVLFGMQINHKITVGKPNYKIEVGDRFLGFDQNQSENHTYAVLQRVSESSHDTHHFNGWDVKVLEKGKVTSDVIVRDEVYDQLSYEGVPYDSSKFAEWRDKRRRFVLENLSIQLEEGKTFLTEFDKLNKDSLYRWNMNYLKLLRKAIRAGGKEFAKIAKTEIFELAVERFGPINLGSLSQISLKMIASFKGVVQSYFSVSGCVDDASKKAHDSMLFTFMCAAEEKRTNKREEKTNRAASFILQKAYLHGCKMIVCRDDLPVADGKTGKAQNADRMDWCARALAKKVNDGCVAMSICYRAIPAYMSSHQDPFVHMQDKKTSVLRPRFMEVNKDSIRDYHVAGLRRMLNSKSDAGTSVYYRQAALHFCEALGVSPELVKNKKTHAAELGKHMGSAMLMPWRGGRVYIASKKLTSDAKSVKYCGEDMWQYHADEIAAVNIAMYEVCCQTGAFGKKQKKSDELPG
Nature of the series: cell_activity; RuvC catalytic residue; cleavage readout. The settings on record: tags: NLS.
Description: as §1

B1: crEGFP DR-T1 ; EGxxxxFP reporter target (ssRNA ; dsDNA)
RNA: AUGACUCAGAAAUGUGUCCCCAGUUGACACCCAUUACAGUAGGAGCAUAC
DNA 1: GGATCCGTGTCTTTCCCATTACAGTAGGAGCATACGGGAGACAAGCTTTG
DNA 2: CAAAGCTTGTCTCCCGTATGCTCCTACTGTAATGGGAAAGACACGGATCC
In the case of B1, the binding signal with xCas12i-D892R (v4.3) was 1.42 relative to WT; with xCas12i-E875R it was 0.1 relative to WT.
